The values that follow come from paper PMC3064491 (Nature, 2011).

The target in the experiment is T1, human OGT construct (hOGT4.5) containing 4.5 TPR units and the catalytic domain (human, UniProt O15294-3 313-1031).
T1 sequence (looked up): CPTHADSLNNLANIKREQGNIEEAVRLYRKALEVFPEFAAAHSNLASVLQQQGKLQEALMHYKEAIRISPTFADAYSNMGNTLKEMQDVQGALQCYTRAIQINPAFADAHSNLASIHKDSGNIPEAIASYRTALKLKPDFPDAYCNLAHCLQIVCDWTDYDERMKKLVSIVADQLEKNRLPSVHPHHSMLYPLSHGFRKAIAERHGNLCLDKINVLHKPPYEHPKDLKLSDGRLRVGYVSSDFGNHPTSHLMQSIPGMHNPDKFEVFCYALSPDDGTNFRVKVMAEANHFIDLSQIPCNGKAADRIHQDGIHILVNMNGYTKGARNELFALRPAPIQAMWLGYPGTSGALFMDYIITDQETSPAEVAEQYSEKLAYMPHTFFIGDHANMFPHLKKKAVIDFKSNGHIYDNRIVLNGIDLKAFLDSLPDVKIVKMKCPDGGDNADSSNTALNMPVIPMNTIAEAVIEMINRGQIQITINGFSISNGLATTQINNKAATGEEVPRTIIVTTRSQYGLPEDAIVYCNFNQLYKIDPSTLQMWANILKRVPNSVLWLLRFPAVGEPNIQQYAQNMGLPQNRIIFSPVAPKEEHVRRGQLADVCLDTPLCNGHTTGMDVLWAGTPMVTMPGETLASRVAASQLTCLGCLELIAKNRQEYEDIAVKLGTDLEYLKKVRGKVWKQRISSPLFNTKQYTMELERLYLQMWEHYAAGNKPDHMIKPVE
The experiment is described as follows: crystal structure.

B1: 14 residue-CKII peptide substrate (peptide)
peptide: YPGGSTPVSSANMM
In the case of B1, the binding result is recorded as “binds”.
